The values that follow come from patent publication US20200325224A1 (Hoffmann-La Roche, published 2020).

In experiment [1] the target is T1, cynomolgus CD3e stalk-Fc(knob)-Avi/CD3d-stalk-Fc(hole) (cynomolgus).
T1 construct: Heterodimer; biotinylated for the ELISA; used in solution in SPR; also called cyCD3ed stalk huFc; cynomolgusCD3e(stalk)Fc-Knob-CD3d(stalk)FcHole
Description: SPR (BIACORE T100), antibody captured by anti-rabbit IgG Fc, antigen in solution, 25 C, 1:1 Langmuir. The method, then:
Around 2000 resonance units (RU) of the capturing system (10 μg/ml goat anti rabbit IgG Fc Fragment specific; Order Code: 111-005-046; Jackson Immuno Research) were coupled on a CM4 chip (GE Healthcare, BR-1005-34) at pH 5.0 by using an amine coupling kit supplied by the GE Healthcare. Running buffer for Immobilization was HBS-N pH 7.4 (10 mM HEPES, 150 mM NaCl, pH 7.4, GE Healthcare, BR-1006-70). For the followed kinetic assay running and dilution buffer was HBS-P pH 7.4 (10 mM HEPES, 150 mM NaCl, 0.05% Surfactant P20, pH 7.4, GE Healthcare, BR-1006-71). The flow cell was set to 25° C.—and the sample block set to 12° C.—and primed with running buffer twice. […] Association was measured by injection of human CD3e(stalk)Fc-Knob-CD3d(stalk)FcHole or cynomolgus CD3e(stalk)Fc-Knob-CD3d(stalk)FcHole in various concentrations in solution for 180 sec at a flow of 30 μl/min starting with 1350 nM, followed by one 1:1.5 dilution and further in 1:3 dilutions. The dissociation phase was monitored for up to 300 sec and triggered by switching from the sample solution to running buffer. The surface was regenerated by washing with two consecutive injections of a Glycine pH 1.7 solution for 60 sec at a flow rate of 10 μl/min. Bulk refractive index differences were corrected by subtracting the response obtained from a goat anti rabbit IgG Fc surface. Blank injections are also subtracted (=double referencing). For calculation of KD and other kinetic parameters the Langmuir 1:1 model was used.
For orientation: SPR reads the build-up and loss of mass on a sensor chip optically.

In experiment [2] the target is T2, human CD3e 5-26-Fc(knob)-Avi/Fc(hole) (human, UniProt P0DOX5 223-449 = IgG part).
T2 construct: Residues 5-26 of mature CD3e fused to Fc(knob), co-expressed with Fc(hole); biotinylated for the ELISA; also called huCD3e 5-26- huFc
Description: ELISA, biotinylated target on streptavidin plate. On the procedure:
(§1) Binding of anti-CD3 antibodies to human and cynomolgus CD3 proteins and peptides was determined by ELISA. Biotinylated target proteins and peptides were immobilized on a 384-well streptavidin-coated microplate (MaxiSorb; MicroCoat, DE, Cat. No. 11974998/MC1099) in 25 μl/well, in DPBS (PAN Biotech GmbH, DE, Cat. No. P0436500) by incubation over night at 4° C. […] Peptides used were produced with biotin attached via linkers either to the N- or the C-terminus of the peptide. For target binding ELISA N- and C-terminal biotinylated peptides were mixed in a 1:1 ratio for immobilization on microplates (Table 8) and used separately (Table 8). […] Antibodies were detected with peroxidase-linked, species-specific anti-rabbit IgG, (F(ab′)₂ fragment, from donkey, GE, Cat. No. NA 9340) diluted 1:5000 in 1×PBS (w/0.5% BSA, w/0.05% Tween 20) for 1 h at room temperature. Detection antibodies were removed by four washing steps with washing buffer and signal was developed by addition of TMB substrate (TMB solution, Roche). Absorbance was read out after fixed time intervals at […].

In experiment [3] the target is T3, cynomolgus CD3e 5-26-Fc(knob)-Avi/Fc(hole) (cynomolgus, UniProt P0DOX5 223-449 = IgG part).
T3 construct: Residues 5-26 of mature CD3e fused to Fc(knob), co-expressed with Fc(hole); biotinylated for the ELISA; also called cyCD3e 5-26 huFc
Description: ELISA, biotinylated target on streptavidin plate. The method, then: as §1
On the technique in general: An ELISA detects its analyte on a solid surface through an enzyme-linked reagent.

Experiment [4] has as its target T4, human CD3e amino acids 1-22 peptide (1:1 mixture of N- and C-terminally biotinylated variants) (human, biotin attached via linker to the N- or the C-terminus (1:1 mixture)).
T4 construct: Linker not described; also called huCD3e- 1-22 peptide
Description: ELISA, biotinylated target on streptavidin plate. On the procedure: as §1

The target of experiment [5] is T5, cynomolgus CD3e amino acids 1-22 peptide (1:1 mixture of N- and C-terminally biotinylated variants) (cynomolgus, biotin attached via linker to the N- or the C-terminus (1:1 mixture)).
T5 construct: Linker not described; also called cyCD3e- 1-22 peptide; cynomolgus CD3 peptide-1-22
T5 peptide: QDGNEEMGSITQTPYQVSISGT
Description: ELISA, biotinylated target on streptavidin plate. On the procedure:
as §1

For experiment [6], the target named is T6, human CD3e-1-26-Fc(knob)-Avi/Fc(hole) (human, UniProt P0DOX5 223-449 = IgG part).
T6 construct: First 26 amino acids of mature CD3e fused to Fc(knob), co-expressed with Fc(hole); biotinylated for the ELISA; also called huCD3e-1-26 huFc
Description: ELISA, biotinylated target on streptavidin plate. The method, then: as §1

T1 sequence (chain, as listed by the source limits assumed): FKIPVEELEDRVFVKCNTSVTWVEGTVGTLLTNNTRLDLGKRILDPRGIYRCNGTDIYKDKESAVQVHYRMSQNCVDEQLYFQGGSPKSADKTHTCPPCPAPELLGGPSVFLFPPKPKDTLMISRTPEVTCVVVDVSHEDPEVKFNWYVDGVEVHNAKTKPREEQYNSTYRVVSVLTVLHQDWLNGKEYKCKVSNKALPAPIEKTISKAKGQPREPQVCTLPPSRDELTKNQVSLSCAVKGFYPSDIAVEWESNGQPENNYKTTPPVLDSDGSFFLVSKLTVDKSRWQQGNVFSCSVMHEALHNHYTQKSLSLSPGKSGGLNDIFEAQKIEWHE
T4 sequence (peptide, as listed by the source mutant): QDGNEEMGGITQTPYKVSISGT

B1: antibody clone 645 (antibody, V domains shown)
VH: QSLEESGGDLVKPGASLTLTCLASGFSFSGTYWICWVRQAPGKGLEWIGCISTDSGSTYYASWAKGRFTISKTSSTTVTLQMTSLTAADTATNFCARSAYASEGYALWGPGTLVTVSS
VL: AIVMTQTPSSKSVPVGDTVTINCQASESVYNNNYLSWYQQKPGQPPKLLIYYASTLASGVSSRFKGSGSGTQFTLTISDVVCDDAATYYCTGWKSITTDGMGAFGGGTEVVVKG
notes: Rabbit monoclonal; Recombinantly expressed with rabbit gamma and kappa constant regions in HEK293 (captured by anti-rabbit IgG Fc in SPR); also called Mab.645
For B1, the Kd in experiment [1] stood at 620 nM. The same molecule returned a koff in experiment [1] of 0.013 s⁻¹. Further, in experiment [1], the kon turned out to be 21000 M⁻¹ s⁻¹. The binding result in experiment [2], in experiment [3], in experiment [4], in experiment [5] and in experiment [6] was “no binding” throughout.

By Kd is commonly meant the free concentration of one partner at which half of the binding sites on the other are occupied at equilibrium, for simple one-to-one binding. A low value points to higher affinity. The term koff denotes a measure of how fast the partners let go of each other. A low value points to slow dissociation. A word on the kon: it is a measure of how fast the partners come together. Higher therefore signals faster complex formation.
